Data taken from the DeepSol protein solubility set.

Test: soluble on expression in E. coli; label from the status in PepcDB or PDB records

Sequence: MSLEVYFSGTIERIIFENPSNFYRILLLEIDDTDAEDFDDFEIIVTGTMADVIEGEDYTFWGQIVQHSKYGEQLQISRYDRAKPTSKGLVKYFSSSHFKGIGLKTAQKIVDTYGENTIDEILQHPEKLEGIAGLSAKNREAFVSTLRLNYGTEMILAKLANYGIPNKLAFQIQDFYKEETLDVVENYPYQLVEDIKGLGFTIADQLAEELGIESQAPERFRAGLVHSLFQACMETGDTYVEARDLLEQTLTLLESSRPVELDPSQVAQELSYLIEEDKVQQIDTKIFDNSLFFAEEGIRSHLVRILEKGKQKSHDLETIQKHITTVEQELGIEYDNIQKQAICDAIQNKVFILTGGPGTGKTTVINGIIAVYALLEGLDFRKKSNLPILLAAPTGRAARRMNELTGLPSATIHRHLGMTGDDDTSHLEDYLDADFIIVDEFSMVDTWLANQLFSNISSNSKILIVGDSDQLPSVSPGQVLADLLHIPLIPQTRLEKIYRQSKESTIVTLASQIRQGILPADFTQKKADRSYFEIASGHIPATIEKILGAALRNGIPARDIQVLAPMYRGTAGIDAINQLMQDLLNPPQKDQLSFEAPQCHYRKRDRVIHLVNDAEINVFNGDLGAITDLIPGKYTESKQDEIVIDFDGNEVSYPRNEWYKIRLAYAMSIHKSQGSEFPVVILPITSASRRMLERNLIYTAITRAKSKLILLGELQAFDYATQHIGTARKTYLIERFSDLLENVEEKQQAVSETVTSSASEQSYILTEENWDRIPAMIGITDTDLKEIFGKEGHHHHHH
- soluble on expression in E. coli: soluble

Sequence: MGSDKIHHHHHHLAARNFPPVLPFSPRKIAVLHAKAVGDFIVILPALDAIKRTYPEAELILLAKPWVKEFFSGRPSPVDRVLSLPPLAGVNDPVESKGRVPSTGSGVYPVEVELFCQAMQGEKLDVVIHMQGDGKSVNPFINKFAARVTAGMCNPPAESLDRSIPYVHYQSEVLRNLEVASLIGARTTSTGFEPRIEVTESDEQETESVRQTIKGKPYVVIHPGADDIRRVWPAVRFAEAADCLLEKGYAVVVTGTPKEEERVATVIRAMSRPAIPCTRLGLCGLAALLQHSALVISNDTGPLHLARAVGARTVGIYWAPNILNWGPLSRDRHRLAIGWQLECPQCGIRPVSPWPFQPQTSDCSHPYSFVESVPVAEVLALATELLGLTTEH
- soluble on expression in E. coli: not soluble

Sequence: SGDPNSRKKQALNRLRAQLRKKKESLADQFDFKMYIAFVFKEKKKKSALFEVSEVIPVMTNNYEENILKGVRDSSYSLESSLELLQKDVVQLHAPRYQSMRRDVIGCTQEMDFILWPRNDIEKIVCLLFSRWKESDEPFRPVQAKFEFHHGDYEKQFLHVLSRKDKTGIVVNNPNQSVFLFIDRQHLQTPKNKATIFKLCSICLYLPQEQLTHWAVGTIEDHLRPYMPE
- soluble on expression in E. coli: soluble

Sequence: MGSDKIHHHHHHMIHTLYRYCIAFTVVFLSACSVTPRQDASESQAGASAAATLASWNDTRTKRSIVDFVTLVTTPESRDFIPSADRIAVFDNDGTLWPEQPVRVQLVFALQRVKTVAGRHPEWKRQEPFRSILKGNLRSVAASGDAGSLRVLAAAHVGMTSEQFAALAHEWFDSASDPRFNRLYADLAYQPMLELLAYLRANGFKTYLVTGGDVEFVREVAQRMYGIPPEQVIGSTVRYRYSQTNDAISLTRLAQVDTLVDGAAKPLAIDRVIGRRPVIAFGNADGDAPMLEWTSAGDGPRLAALVHHTDAEREYQYDHASQSGKLDKGLDEAAVKGWLIVDMKDDWKTVFKPANTTAPGATGATGATVK
- soluble on expression in E. coli: not soluble

Sequence: MSLKTMSDTSEIIFSNYGIYDLGDNLELLLPNTLIKFQRISDNAFSYFRENSEGQIIEKIIPVKSNDIKIELAPIRPLNHPAKRTNYVFLKLDKEIHLGENSAASIFVHCPIEIGIFLIYGDNHEPLDWITCNPLNSRFSLYGSPDTGTLCKYAEVSLATDYNDSVSYVNGVMHIVIENTLSFAQTISKVIFPITDNNLYYKDSKSIVDGIKIIMKKRAAVNIAEIKPTLVDTEWTQAPAWDNSIDSVHHMEMTLEEGHHHHHH
- soluble on expression in E. coli: soluble

Sequence: MSLKNNSEVFNVLHFSDIHIQLRYNVGAEANCTNLPCGAPDSYNKQLLPSSYNFSSYYQHFSPNVAKMEFSFYPDAHYDENSQYIKGDYYDFPLYRGWNFKNAPATSFGGYLTDSPAVLMNSSLISMAKMHKEKNFEFAIFTGDVVDHLLLSCTPEYTKEEEVKSFKAMKFFFNNLTVLPALGNHETGEYGQLSPIAYDFNGSYSWNQDEMVDLWINNEWFPAKDRYDLKSHYAGFSYVTNRGLKVIGLNSNAYYQKNLWSYIDLSTNPDLFGQWEFLVNELIESEEKGQRVWIMAHIPTTDYDTLPLQSRIFGKIVERFSPYTIANIFFAHTHMDQTHILYSTNSSKEAEDIINMSWVMQSVTPLANYNPSWRYYEVENESFNIINSFNYMTKLNDTFVNGGEEPVWEFEYSARELYDPKKTWPERAPLNATFWHKYVFERLRNESDIEFNQQYSNIRYREGHHHHHH
- soluble on expression in E. coli: not soluble

Sequence: MTTETIQSNANLAPLPPHVPEHLVFDFDMYNPSNLSAGVQEAWAVLQESNVPDLVWTRCNGGHWIATRGQLIREAYEDYRHFSSECPFIPREAGEAYDFIPTSMDPPEQRQFRALANQVVGMPVVDKLENRIQELACSLIESLRPQGQCNFTEDYAEPFPIRIFMLLAGLPEEDIPHLKYLTDQMTRPDGSMTFAEAKEALYDYLIPIIEQRRQKPGTDAISIVANGQVNGRPITSDEAKRMCGLLLVGGLDTVVNFLSFSMEFLAKSPEHRQELIERPERIPAACEELLRRFSLVADGRILTSDYEFHGVQLKKGDQILLPQMLSGLDERENACPMHVDFSRQKVSHTTFGHGSHLCLGQHLARREIIVTLKEWLTRIPDFSIAPGAQIQHKSGIVSGVQALPLVWDPATTKAVHHHHHH
- soluble on expression in E. coli: soluble

Sequence: MTKSLFRQSFLFDSLDLDHPMVAQTVRTEQGVTLKLHQRGVLEVIPAQTDAATKNMVISCGIHGDETAPMELLDKWIDDIVSGFQPVAERCLFIMAHPQATVRHVRFIEQNLNRLFDDKPHTPSTELAIADNLKVLLRQFFANTDEHSRWHLDLHCAIRGSKHYSFAVSPKARHPVRSRSLMQFIEQAHIEAVMLSNAPSSTFSWYSAEHYAAQALTLELGQVARLGENLLDRLLAFDLAMRDLISRHKPEHLPRKSVMYRVSRTIVRLHDDFDFRFSDDVENFTAFMHGEVFGHDGDKPLMAKNEGEAIVFPNRKVAIGQRAALMVCKVNTRYEDDQLVYDLEHHHHHH
- soluble on expression in E. coli: soluble

Sequence: MFTYKIGLSTSEHDRFVIDSPQTNLLQSSSWAKIKDSWGNDRLGFYQDDKLVAVASVLIQPLPLGFSMIYIPRGPIMDYQDKELLAFVITSLKKYAKTKRALFVKFDPSLFVTKNLISQEVNINEDTLSIAKDIQALGVEWTGLTEDMAENIQPRFQANIYKEDFTEEQLSKST
- soluble on expression in E. coli: not soluble

Sequence: MDPSSKPLREIPGSYGIPFFQPIKDRLEYFYGTGGRDEYFRSRMQKYQSTVFRANMPPGPFVSSNPKVIVLLDAKSFPILFDVSKVEKKDLFTGTYMPSTKLTGGYRVLSYLDPSEPRHAQLKNLLFFMLKNSSNRVIPQFETTYTELFEGLEAELAKNGKAAFNDVGEQAAFRFLGRAYFNSNPEETKLGTSAPTLISSWVLFNLAPTLDLGLPWFLQEPLLHTFRLPAFLIKSTYNKLYDYFQSVATPVMEQAEKLGVPKDEAVHNILFAVCFNTFGGVKILFPNTLKWIGLAGENLHTQLAEEIRGAIKSYGDGNVTLEAIEQMPLTKSVVYESLRIEPPVPPQYGKAKSNFTIESHDATFEVKKGEMLFGYQPFATKDPKVFDRPEEYVPDRFVGDGEALLKYVWWSNGPETESPTVENKQCAGKDFVVLITRLFVIELFRRYDSFEIELGESPLGAAVTLTFLKRASI
- soluble on expression in E. coli: soluble

Sequence: AGFKPAPPAGQLGAVIVDPYGNAPLTALVDLDSHVISDVKVTVHGKGEKGVEISYPVGQESLKTYDGVPIFGLYQKFANKVTVEWKENGKVMKDDYVVHTSAIVNNYMDNRSISDLQQTKVIKVAPGFEDRLYLVNTHTFTAQGSDLHWHGEKDKNAGILDAGPATGALPFDIAPFTFIVDTEGEYRWWLDQDTFYDGRDRDINKRGYLMGIRETPRGTFTAVQGQHWYEFDMMGQVLEDHKLPRGFADATHESIETPNGTVLLRVGKSNYRRDDGVHVTTIRDHILEVDKSGRVVDVWDLTKILDPKRDALLGALDAGAVCVNVDLAHAGQQAKLEPDTPFGDALGVGPGRNWAHVNSIAYDAKDDSIILSSRHQGVVKIGRDKQVKWILAPSKGWEKPLASKLLKPVDANGKPITCNENGLCENSDFDFTYTQHTAWISSKGTLTIFDNGDGRHLEQPALPTMKYSRFVEYKIDEKKGTVQQVWEYGKERGYDFYSPITSIIEYQADRNTMFGFGGSIHLFDVGQPTVGKLNEIDYKTKEVKVEIDVLSDKPNQTHYRALLVRPQQMFK
- soluble on expression in E. coli: soluble

Sequence: MATKITINVTNNSTSTQNFFFFQQPAVYSGGPKVYTNSLYSQTLLPYATSGSVLSFTMILQYYAGVQQQVDPPQIGQPSGQLGAIQPIELTPASGGTPTKNTTNMTVDPSLGLSVPVSTDGPQAGSFRIVTPVYDPVLMNYSAGSAVQSLTGAITLSNFVTAQPNTNLDCQPIIKFYVQTGTYTAGTVMNFTSSSVGAALCDATPGFTTFNVSYNPNGTWTVKNMALSQLANGSRGLLEKSSFTTELNAAAQIAEVLNEAGTAVVSTGLAANFLRPVTVTNLTAPGAIIRNRDYQVGPVDGRHLGLTCTDVAGNTAVFD
- soluble on expression in E. coli: not soluble

Sequence: MLTVALLALLCASASGNAIQARSSSYSGEYGSGGGKRFSHSGNQLDGPITALRVRVNTYYIVGLQVRYGKVWSDYVGGRNGDLEEIFLHPGESVIQVSGKYKWYLKKLVFVTDKGRYLSFGKDSGTSFNAVPLHPNTVLRFISGRSGSLIDAIGLHWDVYPTSCSRC
- soluble on expression in E. coli: soluble

Sequence: MATFNLNGLGTPKSATYDNESAYRELLSRVNNGESIVVSVYTDKDNYPAFGIETKKVARFKVRVNQSLLSLLVGYLNNSTVNEDTVRANEVEPNEEGQDFTTDLFKLLIDEGFTPQIAPLFRTVYGYVNAVFNFPNGRMYFRLEHTDELMDYLADKKLL
- soluble on expression in E. coli: not soluble

Sequence: MSLTSVVFLNPGNSTETFWVSYSQFMQAAARDLGLDLRILYAERDPQNTLQQARELFQGRDKPDYLMLVNEQYVAPQILRLSQGSGIKLFIVNSPLTLDQRELIGQSRQNYSDWIGSMVGDDEEAGYRMLKELLHKLGPVPAGHGIELLAFSGLKVTPAAQLRERGLRRALAEHPQVHLRQLVYGEWNRERAYRQAQQLLKRYPKTQLVWSANDEMALGAMQAARELGRKPGTDLLFSGVNSSPEALQALIDGKLSVLEAGHFTLGGWALVALHDDALGLDARRLGGPDWQLSLFQALTPAQARQLLRLGDQVGTRVDFRGLSAQGKPDSYRYPFGLQLLLREGHHHHHH
- soluble on expression in E. coli: soluble

Sequence: MGSDKIHHHHHHMELKSAEEKSLYYRNKIKEVIDEVGKVVVGQKYMINRLLIGICTGGHILLEGVPGLAKTLSVNTLAKTMDLDFHRIQFTPDLLPSDLIGTMIYNQHKGNFEVKKGPVFSNFILADEVNRSPAKVQSALLECMQEKQVTIGDTTYPLDNPFLVLATQNPVEQEGTYPLPEAQVDRFMMKIHLTYLDKESELEVMRRVSNMNFNYQVQKIVSKNDVLEIRNEINKVTISESLEKYIIELVFATRFPAEYGLEAEASYILYGASTRAAINLNRVAKAMAFFNNRDYVLPEDIKEVAYDILNHRIILNYEAEAEGISTRQIIETILRKVNITKA
- soluble on expression in E. coli: not soluble

Sequence: MLTFKYLLASLLILLVSSQTWGQQSYGNSNQGYGQQQQGFSGFGQGSATNRQGMTGQGLLESSYQQGYGQNQGSMQGYSQQGYGGNSQQDYGYSQSQGSGMGVQGYGGSSQSYGQQAFAQQQRPQQGFQSNGFSGQQASGSMNSFGGQGGYGQNQNGFGGQSGFSGQSGWGSNSLSSANSNGNNNQGSSSGYQNNQGRHQGQGGGHSSSSNSVMSNNGYSSNSGYGNNNGPTPSFLNNVSSSAAQDYYNIVNNKSLTTNQINEQASNWASANSVQAQYIQYETNRSAIHTQATQNVSDIINNLATVQASIEGIQSNTSSSENDRQSAFQALQQAHPMEYSVLTSLQNQHEQTQYARMGSNGNSNSNYGNSNFNSNYGNNGYNHNGNNYFESTTATSAATKKKTTKATSG
- soluble on expression in E. coli: not soluble
